Test results reported in patent US6942981.

Molecular target: GST-DLG1 PDZ domains 1-2 fusion protein (human) (UniProt Q12959)
Test: variant of the G assay; 100 uM unlabeled 8-mer with 20 uM biotin-labeled AA2L on immobilized GST-DLG1

percent inhibition of labeled AA2L CLASP-2 peptide binding: > 50%
Substance: CLASP-2 C-terminal 8-mer peptide MTSSSSVV (unlabeled)
